The text below walks through data of PMC12610408, “An Unbiased Cell‐Culture Selection Yields DNA Aptamers as Novel Senescent Cell‐Specific Reagents”.

The target in the data set is fibronectin (native, purified from mouse plasma) (mouse, UniProt P11276 33-2477). Description: BLI; BLI: streptavidin biosensors, biotinylated aptamer (500 nM) immobilized, fibronectin analyte, 1x Octet Kinetics Buffer, 30 C, 1:1 fit; pull-down: streptavidin Dynabeads M-270, beads washed in PBS + 5 mM MgCl2. To be noted: protein: native; chain copies: 2; label: 5' 6-FAM; 3' BioTEG. (In general: Biolayer interferometry detects binding as a change in optical thickness at a sensor tip.)
fibronectin (native, purified from mouse plasma), sequence (P11276 33-2477): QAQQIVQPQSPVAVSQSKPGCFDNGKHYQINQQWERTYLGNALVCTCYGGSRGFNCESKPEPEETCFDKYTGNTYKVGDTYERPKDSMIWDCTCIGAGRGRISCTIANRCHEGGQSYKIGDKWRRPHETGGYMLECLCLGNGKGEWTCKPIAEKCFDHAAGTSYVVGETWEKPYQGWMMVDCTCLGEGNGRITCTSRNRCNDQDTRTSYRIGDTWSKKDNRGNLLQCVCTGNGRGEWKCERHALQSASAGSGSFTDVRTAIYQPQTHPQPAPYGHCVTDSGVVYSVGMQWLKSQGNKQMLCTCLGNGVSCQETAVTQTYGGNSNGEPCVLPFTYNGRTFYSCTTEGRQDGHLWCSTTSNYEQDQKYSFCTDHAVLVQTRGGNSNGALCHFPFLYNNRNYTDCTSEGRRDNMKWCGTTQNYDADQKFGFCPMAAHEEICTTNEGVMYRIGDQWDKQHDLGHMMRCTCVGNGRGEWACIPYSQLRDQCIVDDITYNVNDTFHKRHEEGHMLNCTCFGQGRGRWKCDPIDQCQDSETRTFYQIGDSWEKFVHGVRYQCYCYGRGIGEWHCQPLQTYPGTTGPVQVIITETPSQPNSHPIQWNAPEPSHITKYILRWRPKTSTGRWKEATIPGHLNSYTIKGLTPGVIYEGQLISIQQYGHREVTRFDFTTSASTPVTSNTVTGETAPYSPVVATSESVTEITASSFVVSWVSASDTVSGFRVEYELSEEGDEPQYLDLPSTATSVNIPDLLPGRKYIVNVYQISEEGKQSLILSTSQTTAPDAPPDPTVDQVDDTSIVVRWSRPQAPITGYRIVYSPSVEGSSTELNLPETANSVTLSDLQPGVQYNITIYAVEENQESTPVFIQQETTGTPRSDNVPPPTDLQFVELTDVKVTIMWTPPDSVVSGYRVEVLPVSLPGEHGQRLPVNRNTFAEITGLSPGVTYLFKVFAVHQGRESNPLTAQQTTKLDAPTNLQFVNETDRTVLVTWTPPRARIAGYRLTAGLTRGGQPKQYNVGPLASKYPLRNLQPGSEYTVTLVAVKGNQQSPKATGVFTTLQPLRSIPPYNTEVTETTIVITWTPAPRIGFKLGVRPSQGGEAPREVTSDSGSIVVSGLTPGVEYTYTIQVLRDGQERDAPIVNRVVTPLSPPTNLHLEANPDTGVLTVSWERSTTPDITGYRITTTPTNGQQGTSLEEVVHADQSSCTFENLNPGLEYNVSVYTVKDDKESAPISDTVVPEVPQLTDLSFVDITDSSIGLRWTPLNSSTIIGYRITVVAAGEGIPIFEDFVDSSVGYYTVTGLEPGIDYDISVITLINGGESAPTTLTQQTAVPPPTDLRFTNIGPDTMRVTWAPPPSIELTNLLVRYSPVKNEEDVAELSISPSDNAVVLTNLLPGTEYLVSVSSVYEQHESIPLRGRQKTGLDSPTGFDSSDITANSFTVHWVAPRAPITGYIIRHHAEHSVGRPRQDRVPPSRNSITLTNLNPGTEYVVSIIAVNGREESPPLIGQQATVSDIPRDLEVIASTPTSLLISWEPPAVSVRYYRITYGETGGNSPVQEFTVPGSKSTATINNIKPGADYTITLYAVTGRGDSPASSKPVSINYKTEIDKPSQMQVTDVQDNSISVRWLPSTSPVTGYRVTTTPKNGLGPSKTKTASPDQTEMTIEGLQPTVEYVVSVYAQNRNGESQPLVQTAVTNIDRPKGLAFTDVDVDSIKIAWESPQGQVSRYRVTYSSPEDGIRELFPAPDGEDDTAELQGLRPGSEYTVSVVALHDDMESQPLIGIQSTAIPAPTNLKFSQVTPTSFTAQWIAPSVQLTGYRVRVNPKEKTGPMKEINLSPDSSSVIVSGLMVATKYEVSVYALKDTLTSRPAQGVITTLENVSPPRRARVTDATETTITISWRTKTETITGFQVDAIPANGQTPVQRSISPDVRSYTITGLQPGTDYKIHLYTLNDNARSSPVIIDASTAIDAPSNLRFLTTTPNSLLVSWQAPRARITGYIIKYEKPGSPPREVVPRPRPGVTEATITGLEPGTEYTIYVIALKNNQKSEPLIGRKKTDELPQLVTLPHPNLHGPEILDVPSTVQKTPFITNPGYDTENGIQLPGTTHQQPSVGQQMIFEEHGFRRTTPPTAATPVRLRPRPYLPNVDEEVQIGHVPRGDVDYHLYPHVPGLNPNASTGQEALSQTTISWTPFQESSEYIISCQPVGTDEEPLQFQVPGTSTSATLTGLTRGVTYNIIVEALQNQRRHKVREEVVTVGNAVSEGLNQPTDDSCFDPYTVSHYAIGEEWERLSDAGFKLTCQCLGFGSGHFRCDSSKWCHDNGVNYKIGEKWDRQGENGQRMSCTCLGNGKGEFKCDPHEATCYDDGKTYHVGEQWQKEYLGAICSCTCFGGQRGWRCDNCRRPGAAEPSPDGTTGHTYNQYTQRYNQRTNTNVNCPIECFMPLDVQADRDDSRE

B1: aptamer 6762 (ssDNA)
DNA: TGCGTATTGACACATGCGTGGCTTAATGCAATCCATCTGTTGCATTTTTCTAAACGTCGCCAGGCATAGGTATGGGCTTT
By Kd is commonly meant the concentration at which binding is half-saturated. As for B1, the Kd came out at 0.579 nM.

B2: aptamer 6756 (ssDNA)
DNA: TGCGTATTGACACATGCGTGAAACGGACTTTTATTAGACAAATAATGCATGTCTCGAATTCAGGCATAGGTATGGGCTTT
With B2, the Kd worked out at 0.921 nM.

B3: negative control oligonucleotide 6766 (ssDNA)
DNA: TGCGTATTGACACATGCGTGCTTGTTATATAACGTGTCATAGCGTCCAAAAAGAAGTACACAGGCATAGGTATGGGCTTT
As to B3, the binding result is on record as “no binding”.
